Measurements reported in PMC3741163.

Molecular target: CCR3 (UniProt P51677)
Sequence (P51677 whole entry): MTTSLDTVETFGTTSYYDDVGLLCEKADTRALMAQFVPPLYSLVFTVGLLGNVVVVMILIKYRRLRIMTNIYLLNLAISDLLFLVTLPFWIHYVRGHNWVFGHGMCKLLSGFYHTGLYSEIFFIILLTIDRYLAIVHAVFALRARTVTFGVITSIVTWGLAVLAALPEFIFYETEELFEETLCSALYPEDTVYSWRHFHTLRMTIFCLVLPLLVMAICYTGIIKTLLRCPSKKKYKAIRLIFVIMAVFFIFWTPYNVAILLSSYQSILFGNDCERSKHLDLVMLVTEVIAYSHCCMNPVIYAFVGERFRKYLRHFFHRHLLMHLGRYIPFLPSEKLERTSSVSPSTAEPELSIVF

IC50 for inhibition of migration of L1.2/CCR3 transfectants to 1 nM CCL11: 168 nM
B1: CCL18-6His (ligand)
chain: AQVGTNKELCCLVYTSWQIPQKFIVDYSETSPQCPKPGVILLTKRGRQICADPNKKWVQKYISDLKLNA
